Reference: patent US20240390512A1 (Daiichi Sankyo, published 2024)
Numbering of substitutions follows the chain as printed. Blank lines part the entries; values can stand above or below the binder they belong to.

What was measured:
[1] = molecular target: T1, mouse CDH6, on cells (mouse, UniProt P97326 54-790); assay: flow cytometry; 293α cells transfected with mCDH6; PE anti-human IgG Fc(gamma) goat F(ab')
T1 construct: also called mCDH6; NP_031692
T1 sequence: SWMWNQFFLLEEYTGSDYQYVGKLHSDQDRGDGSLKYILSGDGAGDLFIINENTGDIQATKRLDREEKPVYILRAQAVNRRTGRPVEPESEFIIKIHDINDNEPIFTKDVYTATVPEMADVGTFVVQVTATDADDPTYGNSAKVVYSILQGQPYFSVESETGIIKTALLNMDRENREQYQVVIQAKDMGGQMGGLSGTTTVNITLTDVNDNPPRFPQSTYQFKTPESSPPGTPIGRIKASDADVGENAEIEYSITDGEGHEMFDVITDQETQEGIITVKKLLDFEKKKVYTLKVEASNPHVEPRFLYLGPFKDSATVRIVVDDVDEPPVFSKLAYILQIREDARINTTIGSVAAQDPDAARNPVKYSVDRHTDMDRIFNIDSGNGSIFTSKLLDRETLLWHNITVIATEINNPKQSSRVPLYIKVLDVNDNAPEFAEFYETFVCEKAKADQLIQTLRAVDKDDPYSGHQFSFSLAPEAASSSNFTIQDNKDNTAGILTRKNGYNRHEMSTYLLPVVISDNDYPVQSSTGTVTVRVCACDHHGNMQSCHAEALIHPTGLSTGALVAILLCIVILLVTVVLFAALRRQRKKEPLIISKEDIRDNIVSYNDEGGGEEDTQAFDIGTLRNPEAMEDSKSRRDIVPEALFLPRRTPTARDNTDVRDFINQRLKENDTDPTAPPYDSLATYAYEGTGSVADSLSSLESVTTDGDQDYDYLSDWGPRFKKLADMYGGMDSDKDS

[2] = molecular target: T2, rat CDH6, on cells (rat, UniProt P55280 54-789); assay: flow cytometry; 293α cells transfected with rCDH6; PE anti-human IgG Fc(gamma) goat F(ab')
T2 construct: also called rCDH6; NP_037059
T2 sequence: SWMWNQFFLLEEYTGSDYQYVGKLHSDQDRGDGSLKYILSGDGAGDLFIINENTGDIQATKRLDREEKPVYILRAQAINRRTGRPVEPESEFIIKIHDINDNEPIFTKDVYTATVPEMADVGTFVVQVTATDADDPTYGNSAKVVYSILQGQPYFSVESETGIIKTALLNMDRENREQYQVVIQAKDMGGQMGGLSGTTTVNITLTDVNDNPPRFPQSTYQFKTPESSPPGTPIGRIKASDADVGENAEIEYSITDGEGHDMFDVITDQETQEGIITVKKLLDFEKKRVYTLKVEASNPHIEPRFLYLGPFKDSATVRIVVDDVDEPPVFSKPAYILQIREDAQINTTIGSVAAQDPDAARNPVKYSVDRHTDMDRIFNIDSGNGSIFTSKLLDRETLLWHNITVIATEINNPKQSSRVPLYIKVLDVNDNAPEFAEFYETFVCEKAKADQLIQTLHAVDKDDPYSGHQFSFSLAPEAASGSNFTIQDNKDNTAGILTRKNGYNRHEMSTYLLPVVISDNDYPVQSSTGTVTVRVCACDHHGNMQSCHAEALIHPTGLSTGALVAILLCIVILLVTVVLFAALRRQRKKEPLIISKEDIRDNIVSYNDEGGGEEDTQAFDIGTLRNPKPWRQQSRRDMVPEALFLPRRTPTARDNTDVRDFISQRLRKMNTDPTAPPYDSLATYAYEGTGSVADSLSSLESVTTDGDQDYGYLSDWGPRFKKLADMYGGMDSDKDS

[3] = molecular target: T3, Recombinant Human CDH6 Fc His chimera (R&D Systems, Inc.) (human, UniProt P55285 54-615); assay: SPR (Biacore T200); antigen captured by immobilized anti-His antibody, antibody as analyte 0.391 to 100 nM; steady state affinity model
T3 construct: Bought reagent; also called the antigen; human CDH6 antigen; Fc part of the bought chimera not given; His tag of the bought chimera
T3 sequence: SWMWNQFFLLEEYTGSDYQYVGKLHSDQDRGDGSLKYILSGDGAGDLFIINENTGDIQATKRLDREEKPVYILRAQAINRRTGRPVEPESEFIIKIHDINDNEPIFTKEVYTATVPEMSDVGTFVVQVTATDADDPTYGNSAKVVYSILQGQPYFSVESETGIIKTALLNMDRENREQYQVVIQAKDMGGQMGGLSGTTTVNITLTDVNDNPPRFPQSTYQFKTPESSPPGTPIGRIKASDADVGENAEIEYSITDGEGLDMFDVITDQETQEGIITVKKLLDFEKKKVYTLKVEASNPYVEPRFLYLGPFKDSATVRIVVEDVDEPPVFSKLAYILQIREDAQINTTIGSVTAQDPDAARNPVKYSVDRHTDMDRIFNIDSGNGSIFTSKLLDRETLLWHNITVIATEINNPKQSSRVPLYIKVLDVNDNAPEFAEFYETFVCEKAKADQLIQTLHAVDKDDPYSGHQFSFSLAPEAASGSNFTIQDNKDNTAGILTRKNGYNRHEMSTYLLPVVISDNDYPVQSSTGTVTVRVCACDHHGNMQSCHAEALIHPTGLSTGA

[4] = molecular target: T4, EC3 deletion mutant of human CDH6, on cells (human, UniProt P55285 54-790); assay: flow cytometry; 293α cells transfected with EC3-deleted hCDH6 (open line) against untransfected 293α cells (shaded); APC anti-human IgG goat F(ab')2; antibody concentration not given
T4 construct: in p3×FLAG-CMV-9; also called EC3-deleted hCDH6
T4 sequence: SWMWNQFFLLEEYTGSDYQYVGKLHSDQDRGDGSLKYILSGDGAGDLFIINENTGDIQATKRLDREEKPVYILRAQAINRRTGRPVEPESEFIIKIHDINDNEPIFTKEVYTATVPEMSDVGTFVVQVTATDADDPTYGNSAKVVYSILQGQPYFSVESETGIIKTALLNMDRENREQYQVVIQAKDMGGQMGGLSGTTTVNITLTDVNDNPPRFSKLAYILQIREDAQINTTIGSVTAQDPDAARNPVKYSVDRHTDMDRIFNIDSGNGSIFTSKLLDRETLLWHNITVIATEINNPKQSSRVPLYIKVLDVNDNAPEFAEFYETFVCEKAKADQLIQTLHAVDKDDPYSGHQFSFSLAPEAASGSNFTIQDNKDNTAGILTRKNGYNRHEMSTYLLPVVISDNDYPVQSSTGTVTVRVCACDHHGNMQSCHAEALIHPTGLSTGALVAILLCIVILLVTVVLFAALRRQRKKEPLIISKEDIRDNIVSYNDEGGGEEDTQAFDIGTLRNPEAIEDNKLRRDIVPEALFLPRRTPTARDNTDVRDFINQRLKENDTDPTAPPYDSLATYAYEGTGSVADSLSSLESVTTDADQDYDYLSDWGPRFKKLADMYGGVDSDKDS

[5] = molecular target: T5, human CDH6 (cadherin-6), full-length, on cells (human, UniProt P55285 54-790); assay: flow cytometry; 293α cells transfected with pcDNA3.1-hCDH6; PE anti-human IgG Fcγ F(ab')2
T5 construct: also called hCDH6; full-length hCDH6
T5 sequence: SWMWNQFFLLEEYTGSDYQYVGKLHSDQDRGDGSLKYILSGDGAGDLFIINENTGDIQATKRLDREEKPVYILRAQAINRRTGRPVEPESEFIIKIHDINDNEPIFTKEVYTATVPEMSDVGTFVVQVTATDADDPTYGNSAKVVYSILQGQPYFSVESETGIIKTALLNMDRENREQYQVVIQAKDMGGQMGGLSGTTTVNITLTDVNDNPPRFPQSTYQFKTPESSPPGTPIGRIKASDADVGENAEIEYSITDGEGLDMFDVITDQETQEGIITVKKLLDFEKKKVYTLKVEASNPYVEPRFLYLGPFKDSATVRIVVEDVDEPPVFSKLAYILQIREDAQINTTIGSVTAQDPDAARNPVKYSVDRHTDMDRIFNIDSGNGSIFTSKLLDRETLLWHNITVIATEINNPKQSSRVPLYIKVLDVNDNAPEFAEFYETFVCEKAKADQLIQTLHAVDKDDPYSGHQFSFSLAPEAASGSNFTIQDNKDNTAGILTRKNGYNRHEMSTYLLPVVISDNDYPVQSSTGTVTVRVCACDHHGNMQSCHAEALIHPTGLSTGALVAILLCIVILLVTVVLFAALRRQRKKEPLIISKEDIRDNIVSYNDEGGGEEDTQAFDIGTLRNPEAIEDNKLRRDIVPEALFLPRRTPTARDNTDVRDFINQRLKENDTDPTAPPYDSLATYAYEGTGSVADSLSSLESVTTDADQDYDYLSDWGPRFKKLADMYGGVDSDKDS

[6] = molecular target: T6, cynomolgus monkey CDH6, on cells (cynomolgus monkey, UniProt P55285 54-790 (human entry)); assay: flow cytometry; 293α cells transfected with pcDNA3.1-cynoCDH6; PE anti-human IgG Fcγ F(ab')2
T6 construct: Expressed from pcDNA3.1-cynoCDH6; also called cynoCDH6
T6 sequence: T5 sequence with Y300H, H457R, A707G

Kd [3]: 1.1 nM
binding result [4]: no binding
B1: humanized anti-CDH6 antibody H02L02 (antibody, human IgG1, kappa, V domains shown)
VH: EVQLVQSGAEVKKPGASVKVSCKASGYTFTRNFMHWVRQAPGQGLEWMGWIYPGDGETEYNQKFQGRVTITADRSTSTAYMELSSLRSEDTAVYFCARGVYGGFAGGYFDFWGQGTLVTVSS
VL: DIQMTQSPSSLSASVGDRVTITCKASQNIYKNLAWYQQKPGKAPKLLIYDANTLQTGVPSRFSGSGSGSDFTLTISSLQPEDFATYFCQQYYSGWAFGQGTKVEIKR
notes: hH02 heavy chain and hL02 light chain, human IgG1 / kappa; also called H02L02 antibody
binding result [1]: no binding (tested: about 4, unit not printed on the axis)
binding result [2]: no binding (tested: about 4, unit not printed on the axis)

Kd [3]: 1.5 nM
binding result [4]: no binding
B2: humanized anti-CDH6 antibody H01L02 (antibody, human IgG1, kappa, V domains shown)
VH: B1 VH with N61A, R74T, F95Y
VL: B1 VL
notes: hH01 heavy chain and hL02 light chain, human IgG1 / kappa; also called H01L02 antibody; humanized hG019 (H01L02)
binding result [1]: no binding (tested: about 4, unit not printed on the axis)
binding result [2]: no binding (tested: about 4, unit not printed on the axis)

Kd [3]: 1.4 nM
binding result [4]: no binding
B3: humanized anti-CDH6 antibody H02L03 (antibody, human IgG1, kappa, V domains shown)
VH: B1 VH
VL: B1 VL with P40L, K42E, A43G, S69T, F87Y
notes: hH02 heavy chain and hL03 light chain, human IgG1 / kappa; also called H02L03 antibody
binding result [1]: no binding (tested: about 4, unit not printed on the axis)
binding result [2]: no binding (tested: about 4, unit not printed on the axis)

EC50 (read off the curve) [5]: ~0.01 µg/mL
EC50 (read off the curve) [6]: ~0.01 µg/mL
B4: human chimeric anti-CDH6 antibody chG019 (antibody, human IgG1)
heavy: not shown
light: DIQMTQSPSLLSASVGDRVTLNCKASQNIYKNLAWYQQKLGEGPKLLIYDANTLQTGIPSRFSGSGSGSDFTLTISSLQPEDVATYFCQQYYSGWAFGGVTNLELKRAVAAPSVFIFPPSDEQLKSGTASVVCLLNNFYPREAKVQWKVDNALQSGNSQESVTEQDSKDSTYSLSSTLTLSKADYEKHKVYACEVTHQGLSSPVTKSFNRGEC
notes: human IgG1 / kappa constant regions; also called chimeric G019 antibody; chG019 antibody
